B1: SCF: recombinant murine stem cell factor, the ligand for c-Kit (protein)
chain: MKEICGNPVTDNVKDITKLVANLPNDYMITLNYVAGMDVLPSHCWLRDMVIQLSLSLTTLLDKFSNISEGLSNYSIIDKLGKIVDDLVLCMEENAPKNIKESPKRPETRSFTPEEFFSIFNRSIDAFKDFMVASDTSDCVLSSTLGPEKDSRVSVTKPFMLPPVA

How the values were obtained:
F508del CFTR [1] = assay: Nasal potential difference (NPD) in CF mice after intranasal delivery; type: in vivo, mouse; settings: intranasal delivery of NPs
Description: (§1) FIG. 7A is a bar graph showing the results of a MQAE (N-(Ethoxycarbonylmethyl)-6-Methoxyquinolinium Bromide) assay (delta(AFU)/(delta(Time (sec)) measuring chloride flux for negative control CFBE cells; CFBE cells treated with blank nanoparticles, PNA2: lys-lys-lys-TJTJJTTT-OOO-TTTCCTCTATGGGTAAG-lys-lys-lys (SEQ ID NO:93)-loaded nanoparticles, PNA2 (SEQ ID NO:93)-loaded nanoparticles with an MPG peptide, γPNA2 lys-lys-lys-TJTJJTTT-OOO-TTTCCTCTATGGGTAAG-lys-lys-lys (SEQ ID NO:69)-loaded nanoparticles; and untreated positive control wildtype 16HBE14o-cells. FIG. 7B is a dot pot showing nasal potential difference (NPD) (pretreatment, after treatment with γPNA2 (SEQ ID NO:69)-loaded nanoparticles, and after treatment with blank nanoparticles) measured using a non-invasive assay used to detect chloride potential differences in vivo.
(§2) A substantial increase in gene editing in F508del CFTR using γtcPNAs with just partial γ substitution and only in the Hoogsteen domain of CF PNA2.

F508del CFTR [2] = assay: MQAE assay measuring chloride flux in CFBE cells; type: cell-based; settings: NPs containing γtcPNAs with 4 γ residues in the Hoogsteen domain, versus unmodified PNA
Description: as §1, §2

[3] = test system: homology-dependent repair (HDR); assay: Luciferase reporter gene assay for homology-dependent repair (HDR) in CD117+ cells; type: cell-based, mouse
Procedure: An inactivating I-Sce1 site was cloned 56 amino acids into the firefly luciferase open reading frame under the control of a CMV promoter. The reporter construct also contains a promoterless luciferase gene used as a template for homologous recombination. A double-strand break in the luciferase reporter is created by in vitro digestion with the I-Sce I restriction enzyme (NEB #R0694L). Plasmid DNA was digested with I-Sce 1 for 1 hour at 37° C. at a ratio of 10 units enzyme to 1 μg DNA and then the enzyme was inactivated at 65° C. for 20 minutes. The linearization of the plasmid was confirmed for each digestion via gel electrophoresis and the linear plasmid was purified using the Qiagen Qiaquick spin columns. After separation CD117+ and CD117-cells from bone marrow of β-globin/GFP transgenic mice, cells were transfected using the Lonza 2b Nucleofector Device. 5×10^5 cells were transfected with 1 μg of either the luciferase reporter vector or a positive control firefly luciferase expression vector, along with 50 ng of a renilla luciferase expression plasmid as a transfection efficiency control. All transfections were performed in triplicate. After transfection the cells were plated at a density of 5×10^5 cells/ml in 12-well plates. After 24 hours incubation post transfection, luciferase activity was measured using the Promega Dual Luciferase Assay Kit. In each sample firefly luciferase activity was normalized to the renilla luciferase transfection control. Reporter reactivation was calculated as a ratio of normalized firefly luciferase activity in the cells transfected with the reporter plasmid to the positive control.
To test whether the above increases in DNA repair gene expression could be correlated with functional differences in DNA repair, a luciferase-based assay was used to quantify repair of DNA double-strand breaks (DSBs) by HDR. In this assay, repair of a DSB in a reporter plasmid via intramolecular homologous recombination creates (“reactivates”) a functional luciferase gene (FIG. 2H), and so the assay provides a measure of HDR capacity (FIG. 2J).

[4] = test system: DNA repair genes (Rad51, BRCA2); assay: Gene expression profiling of SCF-treated versus untreated CD117+ cells; type: cell-based, mouse
[5] = test system: human β-globin gene with the thalassemia-associated IVS2-654 mutation; assay: Disease phenotype in IVS2-654 β-thalassemic mice (blood smears, CBC, reticulocytes, spleen); type: in vivo, mouse; settings: day 36 after last treatment, four treatments at two-day intervals, SCF i.p., NPs i.v.
Procedure: The IVS2-654 β-thalassemic mice were also obtained from Ryszard Kole, University of North Carolina (Svasti, et al., Proc Natl Acad Sci USA, 106:1205-1210 (2009)). For treatment of the mice, where indicated SCF (15.6 ug per mouse, Recombinant Mouse SCF, carrier-free, R&D catalog #455-mc-050/CF) was injected intraperitoneally 3 hrs prior to treatment with 4 mg of NPs in 150 μl PBS delivered via retro-orbital intravenous injection. Each mouse received 4 treatments given at 48 hr intervals. Mice were anesthetized with isoflurane followed by retro-orbital bleeding (˜100 μL) using ethylenediaminetetraacetic acid-treated glass capillary tubes. The blood was evacuated into tubes with 5 μL of 0.5 M EDTA acid in heparinized coated tubes. Complete blood counts were performed using a Hemavet 950FS (Drew Scientific, Oxford, Conn.) according to the manufacturer's protocol. Slides containing blood smears were stained with Wright and Giemsa stain for microscopy. Methylene blue staining was used for reticulocyte counts. Spleen images and weights were taken after selected mice were sacrificed on day 36 after the last treatment. Harvested spleens were fixed in 10% neutral buffered formalin and processed by Yale Pathology Tissue Services for H&E, CD61 and E cadherin staining. […]

[6] = test system: CD117+ cells from β-globin/GFP transgenic mice; assay: Ex vivo gene editing in pre-sorted CD117+ cells with or without SCF or c-Kit pathway kinase inhibitors; type: cell-based, mouse
Procedure: For CD117+ cell experiments, Iscove's Modified Dulbecco's Media (IMDM) media containing insulin (10 ng/ml), FCS (10%) and erythropoietin (1 U/ml) was used to culture CD117+ cells after isolation using magnetic separation. Where indicated, 3 μg/ml of SCF (Recombinant murine SCF, catalog #250-03, PeproTech, Rocky Hill, N.J.;) was added prior to nanoparticle treatment. 2 mg/ml of NPs were used to treat 50,000-100,000 CD117+ cells in triplicate for 48 hrs in the above media, followed by flow cytometry analyses as above. Inhibitors were used at concentrations of 200 nM (dasatinib), 1.0 μM (MEK162) and 3.0 μM (BKM120). Dasatanib was obtained from Cayman Chemical (Ann Arbor, Mich.; item #11498) and dissolved according to manufacturer's protocol. MEK162 and BKM120 were obtained from Dr. Harriet Kluger, Yale University.
BD Bioscience kit catalog #558451 (BDImag™ Hematopoietic Progenitor Stem Cell Enrichment Set—DM) was used to isolate CD117 cells. Enrichment for CD117 was confirmed by flow cytometry. CD117+ enriched cells were labeled with CD117-APC (BD Pharmingen™ catalog #558451) antibody. Cells were co-labelled with control IgG antibody (BD Pharmingen™ catalog #555746) for gating purposes. To quantify GFP expression, after CD117 co-labelling, flow cytometry was performed using FACScaliburS by resuspending cells in PBS/1% FBS where green fluorescent cells are measured in the Fl1 channel and APC stained cells are in the Fl4 channel Antibodies for other markers were Ter119 (BD Pharmingen™ catalog #561033) and CD45 APC (BD Pharmingen™ catalog #561018).
To explore the mechanism of the increased gene editing in CD117+ cells, the requirement of c-Kit-dependent signaling for elevated gene correction or whether CD117 simply serves as a marker for the increased susceptibility to gene editing was distinguished. To do this, γtcPNA4/donor DNA NP-mediated gene editing was assayed in pre-sorted CD117+ cells in the presence or absence of selected kinase inhibitors (FIG. 2D). Dasatinib, which inhibits the c-Kit kinase in addition to the BCR/Abl and Src kinases, reduced the gene editing from 7% to 2.0%.

Row | Molecule | activity in vivo by NPD measurements (F508del CFTR [1]) | increase in activity for CFTR gene correction (MQAE assay) (F508del CFTR [2]) | HDR repair activity (luciferase reactivation) in CD117+ cells ([3]; CD117+ cells) | fold increase in HDR ([3]; CD117+ cells treated with SCF) [fold] | DNA repair gene expression [4] | RBC morphology in blood smears [5] | change of gene editing frequency on SCF treatment ([6]; CD117+ cells) | gene editing frequency in CD117+ cells treated with SCF ([6]; γtcPNA4/donor DNA NPs, 3 μg/ml SCF added prior to nanoparticle treatment) [%]
1 | lys-lys-lys-TJTJJTTT-OOO-TTTCCTCTATGGGTAAG-lys-lys-lys (lysine caps, linker, γ residues, in nanoparticles, as printed in the source, key not given here) [γPNA2, CF PNA2 with 4 γ residues in the Hoogsteen domain, delivered in nanoparticles] | substantial increase in activity | more than 50% | – | – | – | – | – | –
2 | B1 | – | – | further boosted | 2 | additional up-regulation of numerous DNA repair genes | not | almost doubles the frequency | ~15

— patent US11136597B2, “Compositions for enhancing targeted gene editing and methods of use thereof” (Yale University, priority 2016, dated 2021)
